# Results taken from the RNAGym collection of RNA variant scans (doi:10.7554/elife.80360).
# B1: HDV Ribozyme (parent)
# chain: GGCCGGCAUGGUCCCAGCCUCCUCGCUGGCGCCGGCUGGGCAACAUUCCGAGGGGACCGUCCCCUCGGUAAUGGCGAAUGGGACCCA
# Variants of: B1
# Assay: self-cleavage, relative activity (ratio to wild type); higher = more cleavage; co-transcriptional
row,Variant,self-cleavage
1,GGCCGGCAGGGUCCCAGCCUCCUCGCUGGCGCCGGCUGGGCAACAUUCCGAGGGGACCGUCCCCUCGGUAAUGGCGAAUGGCACCCA [U9G G82C],0.646
2,GGCCGGCAGGGUCCCAGCCUCCUCGCUGGCGCCGGCUGGGCAACAUUCCGAGGGAACCGUCCCCUCGGUAAUGGCGAAUGGGACCCA [U9G G55A],0.962
3,GGCCGGCAUAGUCCCAGCCUCCUCGCUGGCGCCGGGUGGGCAACAUUCCGAGGGGACCGUCCCCUCGGUAAUGGCGAAUGGGACCCA [G10A C36G],0.101
4,GGCCGGCAUAGUCCCAGCCUCCUCCCUGGCGCCGGCUGGGCAACAUUCCGAGGGGACCGUCCCCUCGGUAAUGGCGAAUGGGACCCA [G10A G25C],0.0639
5,GGCCGGCAUAGUCCCAGCCUCCUCACUGGCGCCGGCUGGGCAACAUUCCGAGGGGACCGUCCCCUCGGUAAUGGCGAAUGGGACCCA [G10A G25A],0.126
6,GGCCGGCAUAAUCCCAGCCUCCUCGCUGGCGCCGGCUGGGCAACAUUCCGAGGGGACCGUCCCCUCGGUAAUGGCGAAUGGGACCCA [G10A G11A],0.189
7,GGCCGGCAUAGUCCCAGCCUCCUCGCUGGCGCCGGCUGGGCAACAUUUCGAGGGGACCGUCCCCUCGGUAAUGGCGAAUGGGACCCA [G10A C48U],0.895
8,GGCCGGCAGGGUCCCAGCCUCCUCGCUGGCGCCGGCGGGGCAACAUUCCGAGGGGACCGUCCCCUCGGUAAUGGCGAAUGGGACCCA [U9G U37G],0.111
9,GGCCGGCAGGGUCCCAGCCUCCUCGCUGGCGCCGGCUGGGCAACAUUCCUAGGGGACCGUCCCCUCGGUAAUGGCGAAUGGGACCCA [U9G G50U],1.15
10,GGCCGGCAGGGUCCCAGCCUCCUCGCUGGCGCCGGCUGGGCAACACUCCGAGGGGACCGUCCCCUCGGUAAUGGCGAAUGGGACCCA [U9G U46C],0.748
11,GGCCGGCAUAGUCCCAGCCUCCUCGCUGGCGCCGGCUGGGCAACAUUCCGAGGGGACCGUCCACUCGGUAAUGGCGAAUGGGACCCA [G10A C63A],0.76
12,GGCCGGCAUAGUCCCAGCCUCCUGGCUGGCGCCGGCUGGGCAACAUUCCGAGGGGACCGUCCCCUCGGUAAUGGCGAAUGGGACCCA [G10A C24G],0.061
13,GGCCGGCAUAGUCCCAGCCUCCUUGCUGGCGCCGGCUGGGCAACAUUCCGAGGGGACCGUCCCCUCGGUAAUGGCGAAUGGGACCCA [G10A C24U],0.338
14,GGCCGGCAGGGUCCCAGCCUCCUCGCUGGCGCCGGCUGGGCAACAUUCCGAGGGGACCGUCCCCUCGGGAAUGGCGAAUGGGACCCA [U9G U69G],0.767
15,GGCCGGCAGGGUCCCAGCCUCCUCGCUGGCGCCGGCUGGGCAACAUUCCGAGGGGACCGUCCCCUCGGAAAUGGCGAAUGGGACCCA [U9G U69A],0.831
16,GGCCGGCAGGGUCCCAGCCUCCUCGCUGGCGCCGGCUGAGCAACAUUCCGAGGGGACCGUCCCCUCGGUAAUGGCGAAUGGGACCCA [U9G G39A],0.475
17,GGCCGGCAUAGUCCCAGCCUCCUCGCUGGCGCCGGCUGGGCAACAUUCCGAGGGGACCGUUCCCUCGGUAAUGGCGAAUGGGACCCA [G10A C61U],0.84
18,GGCCGGCAUAGUCCCAGCCUCCUCGCUGGCGCCGGCUGGGCAACAUUCCGAGGGGACCGUCCCCUCGGUAAUGGCGAAUGGGACCUA [G10A C86U],0.774
19,GGCCGGCAUAGUCCCAGCCUCCUCGCUGGCGCCGGCUGGGCAAAAUUCCGAGGGGACCGUCCCCUCGGUAAUGGCGAAUGGGACCCA [G10A C44A],0.321
20,GGCCGGCAUAGUCCCAGCCUCCUCGCUGGCGCCGGCUGGGCAACAUUCCGAGGGGACCGUCCCCUCGGUAAUGGCGAAUGGGCCCCA [G10A A83C],0.287
21,GGCCGGCAUAGUCCCAGCCUCCUCGCUGGCGCCGGCUGGGCAACAUUCCGAGGGGACCGUCCCCUCGGUAAUGGCGAAUGGGUCCCA [G10A A83U],0.322
22,GGCCGGCAUAGUCCCAGCUUCCUCGCUGGCGCCGGCUGGGCAACAUUCCGAGGGGACCGUCCCCUCGGUAAUGGCGAAUGGGACCCA [G10A C19U],0.0326

row,Variant,self-cleavage
1,GGCCGGCAUAGUCCUAGCCUCCUCGCUGGCGCCGGCUGGGCAACAUUCCGAGGGGACCGUCCCCUCGGUAAUGGCGAAUGGGACCCA [G10A C15U],0.332
2,GGCCGGCAUAGUCCAAGCCUCCUCGCUGGCGCCGGCUGGGCAACAUUCCGAGGGGACCGUCCCCUCGGUAAUGGCGAAUGGGACCCA [G10A C15A],0.208
3,GGCCGGCAUAGUCCCAGCCUCCUCGCUGGCGCCGGCUGGGCAACAUUCGGAGGGGACCGUCCCCUCGGUAAUGGCGAAUGGGACCCA [G10A C49G],0.46
4,GGCCGGCAGGGUCCCAGCCUCCUCGCUGGCGCCGGCUGGGCAACAUGCCGAGGGGACCGUCCCCUCGGUAAUGGCGAAUGGGACCCA [U9G U47G],1.21
5,GGCCGGCAUAGUCCCAGCCUCCUCGCUGGCGCCGGCUGGGCAACAUUCCGAGGGGACCGUCCCCUCGGUAAUGGCGCAUGGGACCCA [G10A A77C],0.237
6,GGCCGGCAUAGUCCCAGCCUCCUCGCUGGCGCCGGCUGGGCAACAUUCCGAGGGGACCGUCCCCUCGGUAAUGGCGUAUGGGACCCA [G10A A77U],0.169
7,GGCCGGCAUAGUCCCAGCCUCCUCGCUGGCGCCGGCUGGGCAACAUUCCGAGGGGACCGUCCCCUCGGUAAUGGCGAGUGGGACCCA [G10A A78G],0.302
8,GGCCGGCAGGGUCCCAGCCUCCUCGCUGGCGCCGGCUGGGCAACAUUCCGAGGGGACCGUCCCCUCGGUAAUCGCGAAUGGGACCCA [U9G G73C],0.767
9,GGCCGGCAGGGUCCCAGCCUCCUCGCUGGCGCCGGCUGGGCAACAUUCCGAGGGGACCGUCCCCUCGGUAAUAGCGAAUGGGACCCA [U9G G73A],0.665
10,GGCCGGCAGGGUCCCAGCCUCCUCGCUGCCGCCGGCUGGGCAACAUUCCGAGGGGACCGUCCCCUCGGUAAUGGCGAAUGGGACCCA [U9G G29C],0
11,GGCCGGCAGGGUCCCAGCCUCCUCGCUGACGCCGGCUGGGCAACAUUCCGAGGGGACCGUCCCCUCGGUAAUGGCGAAUGGGACCCA [U9G G29A],0.123
12,GGCCGGCAUAGUCCCAGCCUCCUCGCUGGCGCCGGCUGGGCAACAUUCCGAGGGGAACGUCCCCUCGGUAAUGGCGAAUGGGACCCA [G10A C57A],0.727
13,GGCCGGCAUAGUCCCAGCCUCCUCGCUGGCGCCGGCUGGGCAACAUUCCGAGGGGAGCGUCCCCUCGGUAAUGGCGAAUGGGACCCA [G10A C57G],0.912
14,GGCCGGCAUAGUACCAGCCUCCUCGCUGGCGCCGGCUGGGCAACAUUCCGAGGGGACCGUCCCCUCGGUAAUGGCGAAUGGGACCCA [G10A C13A],0.0941
15,GGCCGGCAGGGUCCCAGCCUCCUCGCUGGCGCCGGCUGGUCAACAUUCCGAGGGGACCGUCCCCUCGGUAAUGGCGAAUGGGACCCA [U9G G40U],1.06
16,GGCCGGCAGGGUCCCAGCCUCCUCGCUGGCGCCGGCUGGGCAACAUUCCGAGGGGACCGUCCCCUCGGUAAUGCCGAAUGGGACCCA [U9G G74C],0.437
17,GGCCGGCAGGGUCCCAGCCUCCUCGCUGGCGCCGGCUGGGCAACAUUCCGAGGGGACCGUCCCCUCGGUAAUGACGAAUGGGACCCA [U9G G74A],0.751
18,GGCCGGCAUAGUCCCAGCCUCCUCGCUGGCACCGGCUGGGCAACAUUCCGAGGGGACCGUCCCCUCGGUAAUGGCGAAUGGGACCCA [G10A G31A],0.203
19,GGCCGGCAUAGUCCCAGCCUCCUCGCUGGCGCCGGCUGGGCAACAUUCCGAGGGGACCGUCCCCUGGGUAAUGGCGAAUGGGACCCA [G10A C66G],0.623
20,GGCCGGCAUAGUCCCAGCCUCCUCGCUGGGGCCGGCUGGGCAACAUUCCGAGGGGACCGUCCCCUCGGUAAUGGCGAAUGGGACCCA [G10A C30G],0.0777
21,GGCCGGCAUAGUCCCAGCCUCCUCGCUGGCGCCGGCUGGGCAACAUUCCGAGGGGACCGUCCCCUCGGUAAUGGCGAAUGGGACCCC [G10A A87C],0.764
22,GGCCGGCAGGGUCCCAGCCUCCUCGCUGGCGCCAGCUGGGCAACAUUCCGAGGGGACCGUCCCCUCGGUAAUGGCGAAUGGGACCCA [U9G G34A],0.344

row,Variant,self-cleavage
1,GGCCGGCAGGGUCCCAGCCUCCUCGCUGGCGCCGCCUGGGCAACAUUCCGAGGGGACCGUCCCCUCGGUAAUGGCGAAUGGGACCCA [U9G G35C],0.0639
2,GGCCGGCAUAGUCCCAGCCUCCUCGCUGGCGCCGGCUGGGCAACAUUCCGAGGGGACCGUCCCCUCGGUAGUGGCGAAUGGGACCCA [G10A A71G],0.703
3,GGCCGGCAUAGUCCCAGCCUCCUCGCUGGCGCCGGCUGGGCAACAUUCCGAGGGGACCGUCCCCUCGGUACUGGCGAAUGGGACCCA [G10A A71C],0.456
4,GGCCGGCAGGGUCCCAUCCUCCUCGCUGGCGCCGGCUGGGCAACAUUCCGAGGGGACCGUCCCCUCGGUAAUGGCGAAUGGGACCCA [U9G G17U],0.415
5,GGCCGGCAGGGUCCCACCCUCCUCGCUGGCGCCGGCUGGGCAACAUUCCGAGGGGACCGUCCCCUCGGUAAUGGCGAAUGGGACCCA [U9G G17C],0.166
6,GGCCGGCAGGGUCCCAGCCUCCUCGCUGGCGCCGGCUGGGCAACAUUCCGAGGGGACCGUCCCCUCGGUAAUGGCGAAAGGGACCCA [U9G U79A],0.68
7,GGCCGGCAGGGUCCCAGCCUCCUCGCUGGCGCCGGCUGGGCAACAUUCCGAGGGGACCGUCCCCUCGGUAAUGGCGAAUGAGACCCA [U9G G81A],0.8
8,GGCCGGCAGGGUCCCAGCCCCCUCGCUGGCGCCGGCUGGGCAACAUUCCGAGGGGACCGUCCCCUCGGUAAUGGCGAAUGGGACCCA [U9G U20C],0
9,GGCCGGCAGGGUCCCAGCCUCCUCGCUGGCGCCGGCUGGGCAACAUUCCGAGGGGACCGUCCCCUCGUUAAUGGCGAAUGGGACCCA [U9G G68U],0.782
10,GGCCGGCAUAGUCCCAGCCUCCUCGGUGGCGCCGGCUGGGCAACAUUCCGAGGGGACCGUCCCCUCGGUAAUGGCGAAUGGGACCCA [G10A C26G],1.11
11,GGCCGGCAUAGUCCCAGCCUCCUCGAUGGCGCCGGCUGGGCAACAUUCCGAGGGGACCGUCCCCUCGGUAAUGGCGAAUGGGACCCA [G10A C26A],0.906
12,GGCCGGCAUAGUCCCAGCCUCCUCGCUGGCGCCGGCUGGGCAACAUUCCGAGGGGACCGUCCCCUCGGUAAUGGCGAAUGGGAGCCA [G10A C84G],0.591
13,GGCCGGCAUAGUCCCAGCCUCCUCGCUGGCGCCGGCUGGGCAACAUUCCGAGGGGACCGUCCCCUCGGUAAUGGCGAAUGGGAACCA [G10A C84A],0.562
14,GGCCGGCAGGGUCCCAGCCUCCUCGCUGGCGCCGGCUAGGCAACAUUCCGAGGGGACCGUCCCCUCGGUAAUGGCGAAUGGGACCCA [U9G G38A],0.156
15,GGCCGGCAUAGUCCCAGCCUCCUCGCUGGCGCCGGCUGGGCAACAUUCCGAGGGGACCGUCCCCUCGGUAAUGGUGAAUGGGACCCA [G10A C75U],0.0992
16,GGCCGGCAUAGUCCCAGCCUCCUCGCUGGCGCCGGCUGGGCAACAUUCCGAGGGGACCGUCCCCUCGGUAAUGGAGAAUGGGACCCA [G10A C75A],0.0898
17,GGCCGGCAGGGUCCCAGCCUCCUCGCUGGCGCCGGCUGGGCAACAUUCCGAGGGGACCGUCCCCUCGGUAAGGGCGAAUGGGACCCA [U9G U72G],0.776
18,GGCCGGCAGGGUCCCAGCCUCCUCGCUGGCGCCGGCUGGGCAACAUUCCGAGGGGACCGUCCCCUCGGUAAAGGCGAAUGGGACCCA [U9G U72A],0.633
19,GGCCGGCAGGGUCCCAGCCUCCUCGCUGGCGCCGGCUGGGCAACAUUCCGAGGGGACCGUCCCCUCAGUAAUGGCGAAUGGGACCCA [U9G G67A],0.88
20,GGCCGGCAUAGUCCCAGCCUCCUCGCUGGCGCCGGCUGGGCAACAUUCCGUGGGGACCGUCCCCUCGGUAAUGGCGAAUGGGACCCA [G10A A51U],0.923
